How the values were obtained:
Test in all cases: EMSA
[1] = system: RhsP2tox WT (Pseudomonas aeruginosa PA14)
[2] = biological target: RhsP2tox K1574E K1574E (Pseudomonas aeruginosa PA14) (UniProt A0A0H2Z8A2)
[3] = biological target: RhsP2tox R1563E R1563E (Pseudomonas aeruginosa PA14) (UniProt A0A0H2Z8A2)
[4] = biological target: RhsP2tox K1564E K1564E (Pseudomonas aeruginosa PA14) (UniProt A0A0H2Z8A2)
[5] = biological target: RhsP2tox K1580E K1580E (Pseudomonas aeruginosa PA14) (UniProt A0A0H2Z8A2)
[6] = biological target: RhsP2tox K1579E K1579E (Pseudomonas aeruginosa PA14) (UniProt A0A0H2Z8A2)
[7] = biological target: RhsP2tox K1567E K1567E (Pseudomonas aeruginosa PA14) (UniProt A0A0H2Z8A2)
[8] = biological target: RhsP2tox WT (Pseudomonas aeruginosa PA14) (UniProt A0A0H2Z8A2)

CsrB sRNA was tested, and the Kd [1] was 0.67 µM.
In the case of synthetic 50-nt RNA, the Kd [1] is reported as 2.2 µM.
Work on McaS sRNA yielded a Kd [1] of 6.9 µM.
With “GGGACCGGCGCAGAGGAGACAAUGCCGGAUUUAAGACGCGGAUGCACUGCUGUGUGUACUGUAGAGUCUGGCGGAUGUCGACAGACUCUAUUUUUUU [McaS sRNA]” the binding [2] was “no binding”, the binding [3] was “binds more weakly” and the binding [4] was “binds more weakly”. The binding [5] was “binds more weakly”, the binding [6] was “binds more weakly” and the binding [7] was “binds more weakly”. It also gave a Kd [8] of 6.9 µM.

— paper PMC12340436
